Assay results from article PMC11568203.
Where “and” joins values, the source holds several entries; their conditions need not be identical. Equal entries are not always repeated.

Columns and labels:
[1] = biological target: KLHDC10^41-C-EloB/C with a 10X Histidine tag on EloC (SPR) (UniProt Q6PID8); experiment: SPR; Biacore T200; His-tagged KLHDC10 complex captured on Ni-NTA chip (about 300 RU); ubiquitin variants as analytes 2 uM to 0.125 uM, multi-cycle kinetics; 25 mM Tris, 200 mM NaCl, 0.1% Tween20, pH 7.4; 20 °C; 1:1 binding model
KLHDC10(41-C)-EloB/C = KLHDC10(41-C)-EloB/C (UniProt Q6PID8); experiment: SPR; Biacore T200; 10xHis-KLHDC10-EloB/C captured on a Ni-NTA chip; UB variants as analytes, 2 uM to 0.125 uM; 25 mM Tris, 200 mM NaCl, 0.1% Tween20, pH 7.4, 20 °C; multi-cycle kinetics, 1:1 binding model; two replicates

ubiquitin (from UniProt P0CG48 1-76) (natural protein)
Kd [1]: 300 nM | Kd (KLHDC10(41-C)-EloB/C): 319 nM and 393 nM
